Molecular target: SARS-CoV S 2P ectodomain (SARS-CoV (Tor2 strain)) (UniProt P59594)
Experiment: cryo-EM structure

## SARS-CoV S 2P ectodomain (from UniProt P59594 14-1190) (domain or fragment)
  stoichiometry N: 3
